From patent EP2091973A2 come the findings set out here.

Common to all, as to assay: cell-based or functional assay
Test [1] concerns the target gp120 of HIV strain BR004 (clade C) on virus (HIV-1 (strain BR004)).
Test [2] has as its target gp120 of HIV strain SF162 (clade B) on virus (HIV-1 (strain SF162)).
The target of test [3] is gp120 of HIV strain ZA009 (clade C) on virus (HIV-1 (strain 97ZA009)).

Consider MAb b12 (antibody), for which the IC80, HIV neutralization (PBMC hosts, p24) in test [1] was > 20 µg/mL; in test [2], 14.1 µg/mL; in test [3] it was > 20 µg/mL.
